According to the domain aggregation screens of Martell et al. (2025):

Assay: soluble fraction after stress (log2 fold change); higher = more stays soluble; pooled small domains, quantitative proteomics
Conditions: stress: 75 degC
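Note: 20 min heating vs room temperature control held 20 min.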

In order of falling “soluble fraction (log2)” value:
1. HMRQKTTFFATESFELPNGEKVEEGQIFRLNDGAFNIAEQQGITRFLTSEANYGRMIAANAEVEKAKLDA  0.605
2. HMRPLISQTLRIDRGEGDIAGPLGVLAKEYPHLSMGSYPFQKDGIYGAHVVIRGSDPGMVEAAMDKLKAAF  0.338
3. HMRPLTPLEKLTPDADGKYYHIVQSGETLSWIAKLYETTAEKLQAWNNLFSSDIFPNQKLLLQVTPP  0.134
4. HMRRISLEDWQLIESLIRRDWSPEQISLWLKKYKKIRVSHEWIYQYILKDKSKAGDLHTHLRSR  0.00689
5. HMRRGFGYVRKLPSGRWQASFVGPDLARHSAPHTFETKGDAEGWLGRRQADVVAGEWRPPVP  -0.00612
6. HMRQSSLRTRELLIDAARQLFARFGVEKTTMNDIAEASKRGRRTVYMYFNSKSDVFYAVVGRE  -0.0881
7. HMRQGHLDLLRQIHALPPSTREVVYLRAFGGLSFREIGDVLGRTETWARVTFYRGKEALRKG  -0.106
8. HMRQLISIYNNTIGADEIDQMRNILSNSGYKEGVDFAVQTADKKSVILVRRDLAGMIQEQLSGEGLPS  -0.119
9. HMRQNPESFLNHKVKKNESLESLTKKYELTENEIIFYNPLIQKIGLKKRMILKIPIYNNQNLVTKSVD  -0.15
10. HMRRFEFSDGSSNKFWQITRDGTSLTVTFGKIGTAGQTQLKELATEAAAIAEHDKLVKEKTKKGYAEVG  -0.174
11. HMRRRKPLVSYEYGTRVYAPSEGEPRYRVVATDADGQRVFAKFSSEEAARHRAREIEGRLATS  -0.26
12. HMRRATLERLANNTAEKAIRYKRSLALEPMNPQERRIIHAALQEVEGVSTHSVGTEPNRKVIVVPDGV  -0.329
13. HMRRSSQQLTLTEVSTIKEMVTSEEYRHVPTGTLALLAQRLRKVFASSSTWYRLVRIYKWRRPRGRIH  -0.329
14. HMRRSVYQANVLDAIKHLVDQNELATTKAIAEYIGDDYQGNVSRAIRELLADRKIKKLPKVGVLQPYEA  -0.442
15. HMRRLGTTEIAGILRREISQGILIAKERLPSERSLADTYGVARGTVRQALNLLAREGLVQIRRSSGAYVTF  -0.458
16. HMRQHHMIISTKLGTPKEELAKLVSGFEDQGLRVSVITGTDYTVIGLVGDTTHLDEKRIRANPYVDNVQRV  -0.813
17. HMRQSQEVSGGERYRRLTAYLDTHPFITRKEYSGITGLLKNKALNDLNLLVNKGYLEAMGRGSHKVYVRPM  -0.86
18. HMRRKNQVQSSYQKRENGTYTVRFFLSDDMGSIMDLQLMATREDMARALRERFLKDPEKIYGQIMQMLLR  -1.23
19. HMRQPRGQRVTVREASSLLPFLFAHLTDRSRSAVKSLLRHGQIWVNGRVTTHFDMPLRPGDTVLISHERG  -1.33
20. HMRRVEDVRTALEHFAAARNTTPMAMTLDQRREAMRELAASGLLNLRRALSEVAQTLGVARSTVYTYLP  -1.39
21. HMRPPLEWGTHGEITTRTVASGYVRASARVRLWDGELQRMTATASTASDARASLQHRIAERLRFSEL  -1.45
22. HMRPHDDHLREQLLGIATETIARTGVEGLSLRTLATDAGTSTSAVYQLFGSRAALLDAVYLRVLE  -1.47
23. HMRRMAYLVGQRGLAMGDFISGTGQVRIGDTVWRAEAVEGELVRTGDTVVVEGAKMTTAIVRRVM  -1.81
24. HMRQIMIIVLKSTATKEDSLLFKNKLEQEYGVKVNEWTGVESTVLGLIGDTTKIDIDYISAQDIVESVKRV  -2.27
25. HMRPTHYSGPSVIAMINNRVWFSDGSRLAPGEHHDDLEVVGLSPPWSAKVRWQGVEFDVGLFE  -2.35
26. HMRSAKEYKAIREEIYRFIGAYITKHVYAPSNKEIAEAVGISGTTVHRHLIDMIDEGILETD  -2.65
27. HMRQVFPNPSSSQIKLASSRIGQAFSILDQQGRVVLSGKVSEEAVIALENLAKGIYVLKIGSWSETILK  -2.89
28. HMRPPLRAAIIDHLARDWHTVAELARLLPASGAHVSRLVVELRAVGAVDERISHPDWPGNRPTEYRLRRA  -3.57
